Assay results taken from publication PMC9714796.

Biological target: T1, Transforming growth factor-β2 (TGF-β2)
T1 sequence (P61812 303-414, species assumed, looked up): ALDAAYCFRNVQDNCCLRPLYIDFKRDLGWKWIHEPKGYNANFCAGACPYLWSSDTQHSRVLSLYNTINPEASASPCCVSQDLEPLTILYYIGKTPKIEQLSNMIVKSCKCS

B1: TGF-βRII-Fc (muTGFbRII-mFc) (Fc fusion)
chain: IPPHVPKSVNSDVMASDNGGAVKLPQLCKFCDVRLSTCDNQKSCMSNCSITAICEKPHEVCVAVWRKNDKNITLETVCHDPKLTYHGFTLEDAASPKCVMKEKKRAGETFFMCACNMEECNDYIIFSEEYTTSSPDLLLVIIQ
IC50 of TGF-βRII-Fc against TGF-β2 (480 pg/mL) signalling in A549 cells with the (CAGA)12 luciferase reporter: > 88000
